Measurements published in patent publication US20250297004A1, “NECTIN-4 BINDING AGENTS” (INNATE PHARMA, priority 2022, published 2025).
Changes are numbered by the printed parent chain. One block for each molecule: values may come before it.

Legend:
[1] = target: human Nectin-4 (protein used in the SPR affinity measurements) (human) (UniProt Q96NY8); test: SPR, human IgG1
[2] = target: T1, human Nectin-4 expressed on cells (human, UniProt Q96NY8 32-510); test: flow cytometry on SUM190 cells, MedFI at saturation
T1 construct: On SUM190, SUM185, MDA-MB-468 cells (endogenous) or transfected cells; 31-residue signal peptide left out; also called huN4; wild-type human Nectin-4
T1 sequence: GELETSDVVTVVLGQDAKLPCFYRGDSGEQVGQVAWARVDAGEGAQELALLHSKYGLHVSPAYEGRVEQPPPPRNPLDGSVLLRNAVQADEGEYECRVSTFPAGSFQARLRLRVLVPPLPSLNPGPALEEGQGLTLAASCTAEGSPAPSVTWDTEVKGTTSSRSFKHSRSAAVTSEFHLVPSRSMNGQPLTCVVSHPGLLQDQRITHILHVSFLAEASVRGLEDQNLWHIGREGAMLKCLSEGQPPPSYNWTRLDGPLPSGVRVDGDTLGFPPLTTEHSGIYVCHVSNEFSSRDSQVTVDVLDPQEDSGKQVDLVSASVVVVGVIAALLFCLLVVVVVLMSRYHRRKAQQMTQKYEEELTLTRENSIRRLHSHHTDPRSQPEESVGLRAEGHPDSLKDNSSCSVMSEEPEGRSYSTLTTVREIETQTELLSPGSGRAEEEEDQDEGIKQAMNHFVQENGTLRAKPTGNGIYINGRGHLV
Procedure: The humanized antibodies in Table 3 of Example 3 and in Table 6 of Example 5 were cloned, produced and purified, then tested for binding to Nectin-4 expressing cells by flow cytometry. Binding of humanized variants in human IgG1 format was determined on the SUM190 cell line expressing high levels of Nectin-4.

[3] = target: T1, human Nectin-4 expressed on cells; test: cell-based or functional assay
human Nectin-4 = target: T2, human Nectin-4 (Homo sapiens, UniProt Q96NY8); test: Binding to human Nectin-4 by SPR; conditions: for ka: SPR association constant; for kd: SPR dissociation constant; for Kd: SPR, human IgG1 isotype antibodies
T2 sequence (Q96NY8 32-510): T1 sequence
Procedure: (§1) The antibodies in Table 3 of Example 3 were cloned as human IgG1 isotype antibodies, produced and purified, then tested for binding to human Nectin-4. Affinity of the 16 humanized variants, as well as their association and dissociation constants were assessed by SPR analysis. Table 4 summarizes all the calculated constants (Affinity constant KD (nM), association constant ka (1/Ms) and dissociation constant kd (1/s)).
as §1, with “Table 6” for “Table 3”, “Example 5” for “Example 3”, “Table 7” for “Table 4”

[4] = target: T1, human Nectin-4 expressed on cells; test: cell-based or functional assay; remark: listed apart in the source

B2: H0L0 (antibody, human IgG1, V domains shown)
VH: QVQLVQSGAEVKKPGASVKVSCKASGYTFTSYWMHWVRQAPGQGLEWMGEIDPSDSYTNYNQKFKGRVTMTRDTSTSTVYMELSSLRSEDTAVYYCARGYGNYGDYWGQGTLVTVSS
VL: DIVMTQSPLSLPVTPGEPASISCRSSKSLLHSNGITYLYWYLQKPGQSPQLLIYQMSNLASGVPDRFSGSGSGTDFTLKISRVEAEDVGVYYCAQNLELPWTFGGGTKVEIK
notes: human IgG1 isotype; also called HOLO; humanized 5E7 variant H0L0
- Kd [1]: 80.2 nM
- koff [1]: 0.014 s⁻¹
- kon [1]: 170000 M⁻¹ s⁻¹
- Max MedFi [2]: 15500 MedFI
- internalization efficiency on SUM190, normalized to chimeric parental antibody (Fab-ZAP, CTG), experiment 1 [3]: 65.9 % of chimeric parental
- internalization efficiency on SUM190, normalized to chimeric parental antibody (Fab-ZAP, CTG), experiment 2 [3]: 35.4 % of chimeric parental
- ka (human Nectin-4; first set (Table 4)): 170000 M⁻¹ s⁻¹
- ka (human Nectin-4; second set (Table 7)): 170000 M⁻¹ s⁻¹
- kd (human Nectin-4; first set (Table 4)): 0.014 s⁻¹
- kd (human Nectin-4; second set (Table 7)): 0.014 s⁻¹
- Kd (human Nectin-4; first set (Table 4)): 80.2 nM
- Kd (human Nectin-4; second set (Table 7)): 80.2 nM
- internalization efficiency on MDA-MB-468, normalized to chimeric parental antibody (Fab-ZAP, CTG), first column [4]: -36.2 % of chimeric parental
- internalization efficiency on MDA-MB-468, normalized to chimeric parental antibody (Fab-ZAP, CTG), second column [4]: -36.2 % of chimeric parental

B3: H4L2 (antibody, human IgG1, V domains shown)
VH: B2 VH with T28I, R38K, R72L, T74K, V79T
VL: B2 VL with I2V, L11N, G69S
notes: human IgG1 isotype
- Kd [1]: 26.8 nM
- koff [1]: 0.0054 s⁻¹
- kon [1]: 200000 M⁻¹ s⁻¹
- Max MedFi [2]: 24400 MedFI
- internalization efficiency on SUM190, normalized to chimeric parental antibody (Fab-ZAP, CTG), experiment 1 [3]: 83.6 % of chimeric parental
- internalization efficiency on SUM190, normalized to chimeric parental antibody (Fab-ZAP, CTG), experiment 2 [3]: 67.6 % of chimeric parental
- ka (human Nectin-4; second set (Table 7)): 200000 M⁻¹ s⁻¹
- kd (human Nectin-4; second set (Table 7)): 0.0054 s⁻¹
- Kd (human Nectin-4; second set (Table 7)): 26.8 nM
- internalization efficiency on MDA-MB-468, normalized to chimeric parental antibody (Fab-ZAP, CTG), first column [4]: 64.2 % of chimeric parental
- internalization efficiency on MDA-MB-468, normalized to chimeric parental antibody (Fab-ZAP, CTG), second column [4]: 64.2 % of chimeric parental

B5: H2L0 (antibody, human IgG1, V domains shown)
VH: B2 VH with R72L, T74K, V79T
VL: B2 VL
notes: human IgG1 isotype
- Kd [1]: 46.4 nM
- koff [1]: 0.0062 s⁻¹
- kon [1]: 130000 M⁻¹ s⁻¹
- Max MedFi [2]: 16700 MedFI
- internalization efficiency on SUM190, normalized to chimeric parental antibody (Fab-ZAP, CTG), experiment 1 [3]: 74.2 % of chimeric parental
- internalization efficiency on SUM190, normalized to chimeric parental antibody (Fab-ZAP, CTG), experiment 2 [3]: 61.8 % of chimeric parental
- ka (human Nectin-4; first set (Table 4)): 130000 M⁻¹ s⁻¹
- kd (human Nectin-4; first set (Table 4)): 0.0062 s⁻¹
- Kd (human Nectin-4; first set (Table 4)): 46.4 nM
- internalization efficiency on MDA-MB-468, normalized to chimeric parental antibody (Fab-ZAP, CTG), first column [4]: -35.5 % of chimeric parental
- internalization efficiency on MDA-MB-468, normalized to chimeric parental antibody (Fab-ZAP, CTG), second column [4]: -35.5 % of chimeric parental

B6: H3L0 (antibody, human IgG1, V domains shown)
VH: B2 VH with T28I, R72L, T74K, V79T
VL: B2 VL
notes: human IgG1 isotype
- Kd [1]: 35.8 nM
- koff [1]: 0.0041 s⁻¹
- kon [1]: 110000 M⁻¹ s⁻¹
- Max MedFi [2]: 17600 MedFI
- internalization efficiency on SUM190, normalized to chimeric parental antibody (Fab-ZAP, CTG), experiment 1 [3]: 81.4 % of chimeric parental
- internalization efficiency on SUM190, normalized to chimeric parental antibody (Fab-ZAP, CTG), experiment 2 [3]: 69.7 % of chimeric parental
- ka (human Nectin-4; first set (Table 4)): 110000 M⁻¹ s⁻¹
- kd (human Nectin-4; first set (Table 4)): 0.0041 s⁻¹
- Kd (human Nectin-4; first set (Table 4)): 35.8 nM
- internalization efficiency on MDA-MB-468, normalized to chimeric parental antibody (Fab-ZAP, CTG), first column [4]: 1.2 % of chimeric parental
- internalization efficiency on MDA-MB-468, normalized to chimeric parental antibody (Fab-ZAP, CTG), second column [4]: 1.2 % of chimeric parental

These reach a lower Kd [1]. Values come first.

- Kd [1]: 25.9 nM
- koff [1]: 0.0081 s⁻¹
- kon [1]: 310000 M⁻¹ s⁻¹
- Max MedFi [2]: 22900 MedFI
- internalization efficiency on SUM190, normalized to chimeric parental antibody (Fab-ZAP, CTG), experiment 1 [3]: 69.8 % of chimeric parental
- internalization efficiency on SUM190, normalized to chimeric parental antibody (Fab-ZAP, CTG), experiment 2 [3]: 45.5 % of chimeric parental
- ka (human Nectin-4; first set (Table 4)): 310000 M⁻¹ s⁻¹
- kd (human Nectin-4; first set (Table 4)): 0.0081 s⁻¹
- Kd (human Nectin-4; first set (Table 4)): 25.9 nM
- internalization efficiency on MDA-MB-468, normalized to chimeric parental antibody (Fab-ZAP, CTG), first column [4]: 13.7 % of chimeric parental
- internalization efficiency on MDA-MB-468, normalized to chimeric parental antibody (Fab-ZAP, CTG), second column [4]: 13.7 % of chimeric parental
B1: H3L2 (antibody, human IgG1, V domains shown)
VH: B2 VH with T28I, R72L, T74K, V79T
VL: B2 VL with I2V, L11N, G69S
notes: human IgG1 isotype

- Kd [1]: 21.6 nM
- koff [1]: 0.0052 s⁻¹
- kon [1]: 250000 M⁻¹ s⁻¹
- Max MedFi [2]: 24800 MedFI
- internalization efficiency on SUM190, normalized to chimeric parental antibody (Fab-ZAP, CTG), experiment 1 [3]: 81.9 % of chimeric parental
- internalization efficiency on SUM190, normalized to chimeric parental antibody (Fab-ZAP, CTG), experiment 2 [3]: 61 % of chimeric parental
- ka (human Nectin-4; second set (Table 7)): 250000 ± 30000 M⁻¹ s⁻¹
- kd (human Nectin-4; second set (Table 7)): 0.0052 ± 0.0002 s⁻¹
- Kd (human Nectin-4; second set (Table 7)): 21.6 ± 1.1 nM
- internalization efficiency on MDA-MB-468, normalized to chimeric parental antibody (Fab-ZAP, CTG), first column [4]: 43.8 % of chimeric parental
- internalization efficiency on MDA-MB-468, normalized to chimeric parental antibody (Fab-ZAP, CTG), second column [4]: 43.8 % of chimeric parental
B4: H4L3 (antibody, human IgG1, V domains shown)
VH: B2 VH with T28I, R38K, R72L, T74K, V79T
VL: B2 VL with I2V, P8A, L11N, G69S
notes: human IgG1 isotype
